Reference: patent US20130202618A1

Experiments:
[1] = biological target: C. difficile toxin A from strain Pitt 07 (ribotype 078) (Clostridium difficile strain Pitt 07); assay: cell-based or functional assay
[2] = biological target: C. difficile toxin B from strain CCL678 (ribotype 027, BI/NAP1/027) (Clostridium difficile strain CCL678); assay: cell-based or functional assay

| Substance | EC50, neutralization of supernatant cytotoxicity on T-84 cells [1] | EC50, neutralization of supernatant cytotoxicity on CHO-K1 cells [2] |
| --- | --- | --- |
| comparator human anti-toxin A monoclonal antibody CDA-1 | > 100 nM | – |
| comparator human anti-toxin B monoclonal antibody CDB-1 | – | > 100 nM |
